# According to article PMC10362293:
# Where two headings read alike, the source gives them in different places.
# B1: FoxP2 FKH domain, unlabeled (domain or fragment)
# chain: VRPPFTYATLIRQAIMESSDRQLTLNEIYSWFTRTFAYFRRNAATWKNAVRHNLSLHKCFVRVENVKGAVWTVDEVEYQKRRSQKITGSPTL
# What was measured:
# [1] = target: FoxP1 FKH domain, single-cysteine mutant N32C (on C61S) labelled with Oregon Green 488 (human); experiment: fluorescence polarisation
# [2] = target: FoxP1 FKH domain, single-cysteine mutant N32C (on C61S) labelled with Oregon Green 488 (human); experiment: fluorescence polarisation; remark: listed apart in the source
binder,measurement,setting,value
B1,Kd,[1],38 µM
same,Kd,[2],18 µM
same,kon,[2],583 M⁻¹ s⁻¹
